Values quoted from earlier work as cited in article PMC5694535.
Where two headings read alike, the source gives them in different places. One block for each substance: values may come before it.

Columns and labels:
AP2 beta2 appendage [1] = biological target: AP2 beta2 appendage (UniProt P63010); experiment: ITC
AP2 beta2 appendage [2] = biological target: AP2 beta2 appendage (UniProt P63010)
Clathrin heavy chain TD [3] = biological target: Clathrin heavy chain TD (UniProt P11442)
Clathrin heavy chain TD [4] = biological target: Clathrin heavy chain TD (UniProt P11442); remark: listed apart in the source

Chain of UniProt P11442 (P11442 1-363): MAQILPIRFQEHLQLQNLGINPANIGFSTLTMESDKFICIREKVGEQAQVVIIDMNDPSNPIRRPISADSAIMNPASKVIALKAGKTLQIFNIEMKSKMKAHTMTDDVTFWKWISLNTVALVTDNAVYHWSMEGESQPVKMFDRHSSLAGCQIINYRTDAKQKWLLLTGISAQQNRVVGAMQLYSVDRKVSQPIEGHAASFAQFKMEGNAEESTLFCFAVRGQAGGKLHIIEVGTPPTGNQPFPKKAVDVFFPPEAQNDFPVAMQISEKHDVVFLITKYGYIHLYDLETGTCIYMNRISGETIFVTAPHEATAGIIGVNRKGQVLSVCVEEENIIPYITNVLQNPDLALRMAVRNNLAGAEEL
Chain of UniProt P63010 (P63010 701-937): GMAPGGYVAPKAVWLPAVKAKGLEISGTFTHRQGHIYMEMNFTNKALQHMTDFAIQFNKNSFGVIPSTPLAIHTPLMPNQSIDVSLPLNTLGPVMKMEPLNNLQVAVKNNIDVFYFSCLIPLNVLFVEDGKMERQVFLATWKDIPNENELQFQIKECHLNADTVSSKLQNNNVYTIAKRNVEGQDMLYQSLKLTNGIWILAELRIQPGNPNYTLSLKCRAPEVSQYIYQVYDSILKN

Kd (AP2 beta2 appendage [1]): 2.6 µM
Substance: beta-arrestin

Kd (AP2 beta2 appendage [2]): 2.4 µM
Substance: ARH peptide (from UniProt Q5SW96)

Kd (Clathrin heavy chain TD [3]): 850 µM
Substance: AP180 peptide (from UniProt Q05140)

Kd (Clathrin heavy chain TD [4]): 200 µM
Substance: AP180 DLL/DLF motifs (from UniProt Q05140)
